Test: soluble on expression in E. coli; label from the status in PepcDB or PDB records

Sequence	soluble on expression in E. coli
MAHHHHHHMHSVVPMSSYIHPTQVSIGAAPRMAVQEMHPDAKRKGRRVVATMELKPGNAIFAAPPDIAVLYSPFARHICARCLVADVRACAEPLKAHHHHHQHPHQQPHATLSRSPVGASSSPSSLSSSTAAPAAAPVRPYCCPNCDQFVLCAPCVAQLLLDSGVDVTSAAGTDAVQTTAPLLQRRGEGKRGVSVVDERLHLHPLLRAHAISCAWYTSLPASIRAPGNDTDFLRFCLDYGARAYLGDTAMMRALATLDTNASVQSKESMQLCEVFARDRVVATFGKEPKAVTATTLATAASAKHMGIDPLSNQAGTHASGGIHRGGNSDGVRCRGSAAVSPFPPRYPISWTDLRDTLLRTRCNSIGFPYNTEETTGWSLHQTVCMLNHSCVPNAAVIMLYDSADAMAAAAALAARTGASHTAPPKERTQEAARRKASERIAAFRAVATSSESPYSTSYSPSLAGWIGIEATRPIAAGEEITISYVDLGSLGDDLQTRSRHLLEQYRFLCTCELCMRQRSLKR	not soluble
MKLSQQSQAIIESAIQKAINKYTCGCEQTIVTDIHIQPNQNSGELFIYDDEDEELSSVTIDEWTAYEGDDFCEDAERIFRTVLCRMKENGSFDKLTILKPYSFVLVDEDKETISELLLVDDDTLLVNDELLKGLDKELDDFLKDLLEKLEHHHHHH	soluble
MIVRGGGDLATGVIQKLWHVGFKILVLETECPLAIRRTVSVCDAIFQKEQRVEDLVAVRITSLKDCAKCWQQNKLPVFVDQTASAIQQLKPLIVIDAILAKKNLGTHRGMAPITIALGPGFSAPQDVDVVIETMRGHRLGRLYFEGTALPNTGIPGEIGGKSAERVVHAPASGQVTHLKNIGDLVLKGEALFLIDQVPVYSPLTGTLRGLISEKVTCYQGLKCADVDPRPVEKVDCLTISDKARALGGAVLEAIFMIGRRKNVLLEHHHHHH	soluble
MSLSGVVERITFVNEENGFSVVKIKSKGFSDLVTAVGNMASVNVGAVVSLRGEWKYDSKFGRQFNVYHYEESIPATVAGIEKYLGSGLIKGIGPVNAKRIVKVFKEDTIRVIEEEPDRLIEVPGIGKKRVEMIKEAWQNQKEIKNVMLFLQSHGVSTAFAVKIFKTYGSDSIKIVKENPYRLADDIWGIGFKTADKIAQNMGYDKESYARIRSGIMYALNEFANDGHCFAKKDELVNKASELLGVELEKVETAIQHMLEEKSVIMEEDDAVYLPPFYYSEVGVARRIREIIETKSMYSFYNFDGIIEDLQRECNIQYDEVQIEAIRKAVVSKFMVLTGGPGTGKTTTTLAIIKVFQKLGATVLLAAPTGRAAKRMSEATGMEAKTIHRLLEYSPQDGYKKNDDNPLECDVLIIDETSMIDIILMYNLLKAVSNNTVVILVGDVDQLASVGAGNVLKDIIESGMVTVVRLMRIFRQAMGSAIVTNAHKINHGEYPVLKGGKNSNFFFIEEEDPEKIVELVRELCSKRLPGYYKINPLNDIQVLCPMQKGVVGAQNLNTVLQETLNPCDISIKYGGTIYKLNDRVMQIKNNYDKNVFNGDMGIITDIDQEEKTVRIKFDDAEVEYDVTELDEVTLAYAVTVHKSQGSEYNFVVAPFTMQHYMMLQRNLLYTCVTRAKKVLVLIGSKKALGCCIRNSRSMDRNTKLAQRLKADTEGHHHHHH	soluble
MDMKRRIHLELRNRTPAAVRELVLDNCKAMDGKIEGLTDEFVNLEFLSLISVGLFSVSDLPKLPKLKKLELSENRIFGGLDRLAEELPSLTHLNLSGNNLKDISTLEPLKRLDCLKSLDLFGCEVTNRSDYRETVFRLLPQLSYLDGYDREDQEAPDSDVEVDSVEEAPDSDGEVDGVDKEEEDEEGEDEEEEEDEDGEEEEDEDEEDEDEDEDVEGEDDEDEVSGEEEEFGHDGEVDEDEEDEDEDEDEEEEESGKGEKRKRETDDEGEDD	soluble
MGSSHHHHHHSSGLVPRGSHMASMGRIESAFDLGFIRGMTFGFVGQHGTWGTDEARASMRALAEQPFNWVTLAFAGLMEHPGDPAIAYGPPVTVSDDEIASMAELAHALGLKVCLKPTVNCRDGTWRGEIRFEKEHGPDLESWEAWFGSYSDMMAHYAHVAKRTGCEMFCVGCEMTTAEPHEAMWRETIARVRTEYDGLVTYNCNHGREEHVRFWDAVDLISSSAYYPIDRWRDRVPVLREVAEAHEKPLFFMEVGCPSRSGSGACPWDYRHPGAVCLDEQARFYEAMFAAMPDEPWFKGYMLWEWPWKLYPREAASEDGSYCIYGKPAEDVVARAFSAIANR	soluble
SGCRCCKIIQSYLFDPVQVPSPGYVNEVNSCKLDEDDTDKLKGKWSSEVLVQKNDPQRQGSKKTESSSRTADPWEPCWPHQGPLPQGDAGGEHHACGVNGIGPAATPQPTGNSSPTQDDRGSWASTANTVPPTQPFLEGGGTRKQDCVLLASEGTQVMRNGDSRAPSEAESFALEVQDHVFQIPAPDYLQHWGPAGDNVDHNEKDCVFKNHTEDESLEGIQPPVGEHGLNTPFSVRRSWDSLNEDVETEVLSICFNEKGPVHAMPVVDSGNRQEDTHGSDGDGDGEIVDEDAAVAEALAALEAATAGEDLDETD	soluble
GMTTPPARTAKQRIQDTLNRLELDVDAWVSTAGADGGAPYLVPLSYLWDGETFLVATPAASPTGRNLSETGRVRLGIGPTRDLVLVEGTALPLEPAGLPDGVGDTFAEKTGFDPRRLTTSYLYFRISPRRVQAWREANELSGRELMRDGEWLVTD	soluble
MNEADMLFSVTVPGSTANLGPGFDSVGMALSRYLKLTVFESDKWSFEAETETVAGIPAGTDNLIYQVAKRTADLYGKEMPPVHVKVWSDIPLARGLGSSAAAIVAAIELADELCGLKLSEADKLHLASLEEGHPDNAGASLVGGLVIGLHEDDETQMIRVPNADIDVVVVIPFYEVLTRDARDVLPKEFPYADAVKASAVSNILIAAIMSKDWPLVGKIMKKDMFHQPYRAMLVPELSKVEHVAEMKGAYGTALSGAGPTILVMTEKGKGEELKEQLALHFPHCEVDALTVPKEGSIIERNPLYQVKSV	not soluble
MERSLDSLAGMAKSAFGAGTSAAMRQATSPKTILEYIINFFTCGGIRRRNETQYQELIETMAETLKSTMPDRGAPLPENIILDDMDGCRVEFNLPGENNEAGQVIVRVSKGDHSETREIPLASFEKICRALLFRCEFSLPQDSVILTAQGGMNLKGAVLTGANLTSENLCDADLSGANLEGAVLFMADCEGANFKGANLSGTSLGDSNFKNACLEDSIMCGATLDHANLTGANLQHASLLGCSMIECNCSGANMDHTNLSGATLIRADMSGATLQGATIMAAIMEGAVLTRANLRKASFISTNLDGADLAEANLNNTCFKDCTLTDLRTEDATMSTSTQTLFNEFYSENI	not soluble
MKASIYDFTLKELSQLLKPSFRAKQLYLWLYAKYKTSFKDMQNNFSKDFIAYLEREFALRTIEITHVRESVDGSKKYLFKSLRDNHTFEAVLLKMKDKKIDAETNAILEREKYTVCVSCQIGCQVGCSFCFTQKGGFVRNLKASEIIQQALLIKEDNNLPLEKALNIVFMGMGEPLNNLDEVCKAIEIFNTGMQISPKRITISTSGVADKIPILAGKNLGVQLAISLHAVDDKTRSSLMPLNKKYNIECVLNEVRKWPLEQRKRVMFEYLLIKDLNDSLDCAKKLLKLLNGIKSKVNLILFNPHEGSKFERPSLENARMFADFLNSKGLLCTIRESKALDIEAACGQLREKKLSQQILEHHHHHH	soluble
MGSDKIHHHHHHMTAEVAIINRSGIALAADSAVTIGRDRVWKNSNKLFHLAPSNDVAVMVFGSGDYCGLPWEVVIKEFRKSLGKTTYSRVEEYVGRFLGFLDDLVVPPTPLADLTGWYIILNAISQTQKAMTASGSLKRRQQLIAAISEKIEEADHYPLLFDGYSRDQYRKKHSQKIKEFMAEELGMHVTQTMHSKMITLCYERSRRAFETKFETGVVFAGYGDSELLPVVIEMCVDGELEGKVRAWQVRENNMNEGGTSGAILPFAQADVANLFVEGTLPQYLSYTRQTLLQTLDLKTAELVKDYVPEPDRVVEMERQKKANRAMVKQFSTDFKQYRHDESVANLLKVVNSLPKEEMAAMAEALVEITSLRRKMDSSLETVGGPVDVAIISKSDGFVWTKRKHYFDVEFNRDFMERRNQRYQGNQDA	not soluble
MTDLQVFEMNPQLNFPISDKTIYQMGFNSSAAQPSAANYVTESNSLTNHLQILDLLNPQTSSGSDDKKRQFFADLMTPHYEKQAEIEKKIDDLSEVVHQFIQSQQSLNKLILEKCLGRIPSPRMTSPHQPEDNSIDDMDPPVQEEIEEKIENDTFGQNEVTVNQQPINNPMPVYPVPISHEPANLHSPIRNRSISPEKMDTTGNSGAGMSVRDFLKNTMTVQKADEKILEEELERERDEAAQTVRYNKFRVRNRPKKYKRSAVTFTSSLEAATSSSSSTIPHQDQGPTFSTHSTIGNSSDTSQLMEQLDQSQNDSIDIEENVYQPIVVPCVQRAPELDLTLMQPVFSTASSYVLNSSALDPTTHQAQSSLSALTDSKFQTDPNNLWKAVDGVSQLLVDAPSLLESDLRSFTDHSHHSSFLPFVANHEPLHRSAFLPPQYHKDRRIHQQMDSHLSDTLRNL	not soluble
MGSDKIHHHHHHMAPDLASLQRISGDSAIDQWLQVPGSWVEEPNERRGGASGVQRVYTGDGRLLYRKQQTGHVYRDWQRPFGYPTAMRERDALRAFESLGIRVPRLVYSGCRKVDGQWQALLVTEALEGFSSLDECYARGDQDRWGEAKHQRILQQIGATIARMNLAHWQHGCLYPKHIFVRVEGEAIEVALIDLEKSRRRLTVNKASQHDLKQLKRRSSWTGAQWQAFIYGYQTAFGSAIKGLQT	not soluble
MFPAQEEADRTVFVGNLEARVREEILYELFLQAGPLTKVTICKDREGKPKSFGFVCFKHPESVSYAIALLNGIRLYGRPINVQYRFGSSRSSEPANQSFESCVKINSHNYRNEEMLVGRSSFPMQYFPINNTSLPQEYFLFQKMQWHVYNPVLQLPYYEMTAPLPNSASVSSSLNHVPDLEAGPSSYKWTHQQPSDSDLYQMTAPLPNSASVSSSLNHVPDLEAGPSSYKWTHQQPSDSDLYQMNKRKRQKQTSDSDSSTDNNRGNECSQKFRKSKKKKRY	soluble
MSVSKKLFSTAVRGKSWWSHVEMGPPDAILGVTEAFKADSNPKKINLGVGAYRDDQGKPFVLPSVKEAERQVIAANLDKEYAGIVGLPEFTKLSAQLALGENSDVIKNKRIFTTQSISGTGALRIGSEFLSKYAKTKVIYQPTPTWGNHVPIFKFAGVDVKQYRYYDKSTCGFDETGALADIAQIPEGSTILLHACAHNPTGVDPSRDQWKKISDIVKKRNLFVFFDMAYQGFASGDVDNDAFAVRYFVEQGHNIVLSQSFAKNMGLYGERVGAFSVVTSDADEAARVASQVKILIRPLYSNPPVHGARIASRILADPALNKQWLGDVKLMADRIITMRTTLKDLLAKEGSTRNWEHITNQIGMFCFTGINPQQVEKLIKEHSVYLTKDGRISVAGISSNNVAYLAHALHQVTK	not soluble
MGSDKIHHHHHHMLKENRSLDRGIEILETLAREGAMSLADLHRATGLPKSTLRRLLQTLIARKIVRRSLADKLYRTLVVFPDISGEVMPKGMLHISEAAIPRALALTKEIGWPSDIHIRETRAMRIIDNTRHASTFHVERGQINQRVSHFGSATGLACLAEMKDAEIATIYEAFKPDLQWGPVRFGLDLAGLMARIEQVRQVGYAERLSAPMSDPDWDTDLRAIAVAIKARGRVVGGLSVLWLRPYKPVEEFARLHLEALQTAAAEINATLDAVWEDAAT	not soluble
METRREERIGQLLQELKRSDKLHLKDAAALLGVSEMTIRRDLNNHSAPVVLLGGYIVLEPRSASHYLLSDQKSRLVEEKRRAAKLAATLVEPDQTLFFDCGTTTPWIIEAIDNEIPFTAVCYSLNTFLALKEKPHCRAFLCGGEFHASNAIFKPIDFQQTLNNFCPDIAFYSAAGVHVSKGATCFNLEELPVKHWAMSMAQKHVLVVDHSKFGKVRPARMGDLKRFDIVVSDCCPEDEYVKYAQTQRIKLMYLEHHHHHH	soluble
